In patent US20250327057A1, “NOVEL AMINOACYL-TRNA SYNTHETASE VARIANTS FOR GENETIC CODE EXPANSION IN EUKARYOTES” (VERAXA Biotech GmbH, priority 2021, published 2025):
Entries after “also recorded” stand apart in the source; their conditions may differ.

Tests used:
[1] = test system: iRFP-EGFP^Y39TAG reporter in HEK293T cells; assay: Incorporation assay for cyclooctyne-lysine (SCO) by FFC, Example 4; assay type: cell-based; conditions: ncAA SCO, 15.625 μM to 500 μM, FIG. 5
Procedure: To test the incorporation efficiency of another ncAA by the new variant PylRS A1, an incorporation assay was performed utilizing HEK293T cells. The cells were co-transfected with a plasmid containing NES-PylRS A1 containing as well the corresponding tRNA^Pyl gene together with the reporter plasmid pCI-iRFP-EGFP^Y39TAG-6His (SEQ ID NO: 97). Different concentrations of SCO were added to the growth medium 4 hours after the transfection of the cells ranging from 15.625 μM to 500 μM SCO. After 20 hours of incubation, the iRFP and EGFP signal was analyzed with a flow cytometer analyzer (LSRFortessa™, BD Biosciences) as mentioned above.

[2] = test system: iRFP-EGFP^Y39TAG reporter in HEK293T cells; assay: FFC test of importance of Y306A and Y384F for incorporation of bulky ncAAs, Example 3; assay type: cell-based
Procedure: These new PylRS variants as obtained from example 1 were tested in HEK293T cells utilizing a fluorescent reporter by fluorescent flow cytometry (FFC). The reporter contains an infrared fluorescent protein (iRFP) fused to enhanced green fluorescent protein (EGFP) which harbors an amber stop codon at position Y39 and is called iRFP-EGFP^Y39TAG. To analyze the incorporation efficiency for each new PylRS variant, transient transfection with different ncAAs and different amounts of ncAAs were performed.
The iRFP and EGFP signals were measured after 24 hours post transfection. Therefore, HEK293T cells were seeded in 24-well plate 16 hours prior to transfection. For the two-plasmid transfection, 1 μg of total DNA was used per well. The DNA was mixed with 50 μl of DMEM medium without Phenol Red and 3 μl of PEI were added. After 10 seconds of vortexing and a short centrifugation step, the DNA mixture was incubated 15 minutes in the hood, before it was added dropwise to the well. A master mix was prepared for all wells whenever suitable. After four hours of incubation, the medium was aspirated and fresh medium with different concentrations of ncAAs was added. The concentration of ncAA was 250 μM. After 20 hours of incubation, the iRFP and EGFP signal was analyzed with a flow cytometer analyzer (LSRFortessa™, BD Biosciences). Stock solutions for all ncAAs were prepared as described previously (Nikic, I., Kang, J. H., Girona, G. E., Aramburu, I. V. & Lemke, E. A. Labeling proteins on live mammalian cells using click chemistry. Nat. Protoc. 10, 780-791 (2015)).
To test, if the mutations Y306A and Y384F are really important for the incorporation of bulky ncAAs, these amino acids were changed back to their original amino acid residues by site directed mutagenesis in the case of the PylRS AF A1 variant.
The FFC test was with TCO*A, TCO-E and in addition with Boc using the variants PylRS A1, PylRS AF, PylRS AF A1 and PylRS MMA. PylRS MMA has the mutations 306M 309M 348A. FIG. 3 illustrates the data obtained by FFC in bar plots for the different ncAAs used. […] These bar plot illustrates on how much higher the incorporation efficiency is for each variant compared to PylRS AF.

Molecule | incorporation of SCO (EGFP signal by FFC) [1] | ability to incorporate bulky ncAAs ([2]; TCO*A, TCO-E, Boc, HEK293T) | incorporation efficiency relative to PylRS AF ([2]; ncAA Boc) | incorporation efficiency (mean GFP/mean iRFP), ranking among variants ([2]; ncAA Boc, FIG. 3C) | incorporation efficiency (mean GFP/mean iRFP), ranking among variants ([2]; ncAA TCO*A, FIG. 3B) | incorporation efficiency relative to PylRS AF ([2]; ncAA TCO*A, independent of the ncAA concentration used) [×] | incorporation efficiency (mean GFP/mean iRFP), ranking among variants ([2]; ncAA TCO-E, FIG. 3A) | incorporation efficiency relative to PylRS AF ([2]; ncAA TCO-E, depending on the concentration used) | incorporation efficiency relative to PylRS AF ([2]; ncAA TCO-E)
PylRS A1: M. mazei PylRS mutant L309M, C348G, I405R without Y306A/Y384F (SEQ ID NO: 70) (protein) MDKKPLNTLISATGLWMSRTGTIHKIKHHEVSRSKIYIEMACGDHLVVNNSRSSRTARALRHHKYRKTCKRCRVSDEDLNKFLTKANEDQTSVKVKVVSAPTRTKKAMPKSVARAPKPLENTEAAQAQPSGSKFSPAIPVSTQESVSVPASVSTSISSISTGATASALVKGNTNPITSMSAPVQASAPALTKSQTDRLEVLLNPKDEISLNSGKPFRELESELLSRRKKDLQQIYAEERENYLGKLEREITRFFVDRGFLEIKSPILIPLEYIERMGIDNDTELSKQIFRVDKNFCLRPMLAPNLYNYMRKLDRALPDPIKIFEIGPCYRKESDGKEHLEEFTMLNFGQMGSGCTRENLESIITDFLNHLGIDFKIVGDSCMVYGDTLDVMHGDLELSSAVVGPRPLDREWGIDKPWIGAGFGLERLLKVKHDFKNIKRAARSESYYNGISTNL | can incorporate SCO efficiently | better synthetase for bulky ncAAs; also recorded: able to incorporate bulky ncAAs | up to 4.5 × | highest incorporation efficiency | best incorporation | 1.2 | highest incorporation efficiency | up to 30 times | 
PylRS AF A1: PylRS AF variant with 309M, 348G, 405R (SEQ ID NO: 108) (protein) MDKKPLNTLISATGLWMSRTGTIHKIKHHEVSRSKIYIEMACGDHLVVNNSRSSRTARALRHHKYRKTCKRCRVSDEDLNKFLTKANEDQTSVKVKVVSAPTRTKKAMPKSVARAPKPLENTEAAQAQPSGSKFSPAIPVSTQESVSVPASVSTSISSISTGATASALVKGNTNPITSMSAPVQASAPALTKSQTDRLEVLLNPKDEISLNSGKPFRELESELLSRRKKDLQQIYAEERENYLGKLEREITRFFVDRGFLEIKSPILIPLEYIERMGIDNDTELSKQIFRVDKNFCLRPMLAPNLANYMRKLDRALPDPIKIFEIGPCYRKESDGKEHLEEFTMLNFGQMGSGCTRENLESIITDFLNHLGIDFKIVGDSCMVFGDTLDVMHGDLELSSAVVGPRPLDREWGIDKPWIGAGFGLERLLKVKHDFKNIKRAARSESYYNGISTNL |  |  |  |  |  |  | highest incorporation efficiency |  | 
PylRS MMA: M. mazei PylRS mutant Y306M, L309M, C348A (SEQ ID NO: 72) (protein) MDKKPLNTLISATGLWMSRTGTIHKIKHHEVSRSKIYIEMACGDHLVVNNSRSSRTARALRHHKYRKTCKRCRVSDEDLNKFLTKANEDQTSVKVKVVSAPTRTKKAMPKSVARAPKPLENTEAAQAQPSGSKFSPAIPVSTQESVSVPASVSTSISSISTGATASALVKGNTNPITSMSAPVQASAPALTKSQTDRLEVLLNPKDEISLNSGKPFRELESELLSRRKKDLQQIYAEERENYLGKLEREITRFFVDRGFLEIKSPILIPLEYIERMGIDNDTELSKQIFRVDKNFCLRPMLAPNLMNYMRKLDRALPDPIKIFEIGPCYRKESDGKEHLEEFTMLNFAQMGSGCTRENLESIITDFLNHLGIDFKIVGDSCMVYGDTLDVMHGDLELSSAVVGPIPLDREWGIDKPWIGAGFGLERLLKVKHDFKNIKRAARSESYYNGISTNL |  |  |  |  |  |  |  |  | up to 10 ×
